In the nanobody polyreactivity screen of Harvey et al. (2022):

Assay: yeast display, Sf9 membrane polyspecificity reagent, FACS + sequencing; frameworks hold sequencing errors
Summary of the method: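 Galactose-induced (36–48 hours) yeast carrying a synthetic nanobody display library were exposed to 10% biotinylated, detergent-solubilized Sf9 membrane reagent at 4 °C for 1 hour. FACS followed streptavidin microbead enrichment, using low and high (top ~1%) gates for expression (anti-HA) and reagent binding (streptavidin). Colony PCR, MiSeq 2 × 250 sequencing and CDR-length filtering followed. Labels for polyreactivity reflect the gate of origin.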

Sequence	polyreactivity (PSR sort gate)
QVQLVESGGGLVQTGGSLRLSCAASGSTFYLYTMGWYRQAPGKERELVAAISGRDGSTYYADSVKGRFTISRDNAKNTVYLQMNSLKPEDTAVYYCAADPGYTYVHVTYYYWGQGTQVTVSS	low polyreactivity
QVQLVESGGGLVQVGGSLRLSCAASGRTFWWYAMGWYRQAPGKERELVAAISRGSTNYADSVKGRFTISRDNAKNTVYLQMNSLKPEDTAVYYCKAVSLYQSHDYDYWGQGTQVTVSS	low polyreactivity
QVQLVESGGGLVQVGGSLRLSCAASGRTFYDYAMGWYRQAPGKERELVAAITWSGGSTYYADSVKGRFTISRDNAKNTVYLQMNSLKPEDTAVSYCAKGGSYQSRYDYWGQGTQVTVSS	low polyreactivity
QVQLVESGGGLYQAGGSLRLSCAASGFIFDPYARGWYRQAPGKEMELVASITWYGGRTYYADSVKGRFTISRDNAKNTVYLQMNSLKPEDPAVYYCAARGYTVWDDYWGQGTQVTVSS	high polyreactivity
QVQLVESGGGLYQAGGSLRLSCAASGFILSTNVMGWYRQAPGKEREKVAAISARGGSTYYADSVKGRFTISRDNAKNTVYLQMNILKPEDTAVYYCAARVYVSRSKRLNYWGQGTQVTVSS	high polyreactivity
QVQLVESGGGRDQAGGSLRLSCAASGSTFNGYAMGWYRQAPGKERELVAAISSRGGSTNYADSVKGRFTISRDNAKKTVYLQMNSLKPEDTAVYYCNAVYRRSRSVGSCFDDWGQVTQVTVSS	high polyreactivity
QVQLVESGGGSVQAGGSLRLSCAASGSTFQTNAMGWYRQAPGKERELVAAISRTGGRTYYADSVKGRFTISRDNAKNTVYLQMNSLKPEDTAVYYCAASAWIRYNNRDGYGYWGQGTQVTVSS	high polyreactivity
QVQLVESGGGSVQAGGSLRLSCAASGSTFQYYDMGWYRQAPGKERELVASITGSGDSTYYADSVKGRFTISRDNAKNTVYLQLNSLKPEDTAVYYCAAQNTWSGDYDYWGQGTQVTVSS	low polyreactivity
QVQLVESGGGSVQAGGSLRLSCAASGSTFWSYAMGWYRQAPGKERELVAVITGSDGRTFYADSVKGRFTISRDNANNTFFLQMNSLKPEDTAVYYCAADALFRATRFDRSTSEDDYWGQGTQVTVSS	low polyreactivity
QVQLVESGGGVVQAGGSLRISCAASGRTFGVYVMGWYRQAPGKERELVAAISSSGGRTYYADSVKGRFTISRDNAKNTFYLQMNSLKPEDTAVFYCNAVRRREERDGPPNQMDYWGQGTQVTVSS	high polyreactivity
QVQLVESGGGVVQAGGSLRISCDASGRTFWNYAMGWYRQAPGLERELVAVIRFSDGSTYYADSVKGRFTISRDNAKNTVYLQRNSLKPEDTAVYYCAAKGPRRWGSGFDYWGQGTQVTVSS	low polyreactivity
QVQLVESGGGVVQAGGSLRLICAASGSTFGVYAMGWYRQAPGKERELFASISESGGNTYYADSVKGRFTISRDNAKNTVYLQMNSLKPDDTAVYYCNTDVVDVHYIQAYYWGQVTQVTVSS	low polyreactivity
QVQLVESGGGVVQAGGSLRLSCAASGFIFWVYALGWYRQAPGKASELVAAITGRGGRTYYVDAVKGRFTISRDNAKNTVYLQMNSLKPEDTAVYYCNTVPYPAYLARMVYWGQGTQVTVTS	high polyreactivity
QVQLVESGGGVVQAGGSLRLSCAASGFTFVWHAMGWYRQAPGKEREFVAAISRRGGTTNYADSVKGRFTISRDNAKNTVYLQMNSLKPEDTAVYYCNIEPRYRSSGGMDYWGQGTQVTASS	high polyreactivity
QVQLVESGGGVVQAGGSLRLSCAASGIIFDYYAMGLYRQAPGKERELVAAITSGGSTYYADSVKGRFTISRDNAKNSVYFQMKSLKAEDTAVYFCAAVYPRVRYDYWGQGTQVNVSS	high polyreactivity
QVQLVESGGGVVQAGGSLRLSCAASGITFQGDDMGWYRQAPGKEREFVAAITWNGGSTYYADSVKGRFTISRDHAKNTVFLQMNSLKPEDTAVYYCAADWSITYGDGGYWGQGTQVTVSS	low polyreactivity
QVQLVESGGGVVQAGGSLRLSCAASGRIFHDYAMGWYRQAPGKERELVAGMTSGVRTYYADSVKGRFTISRDNEKNTVYLQMNSLKPEDTAVYYCARRLSPLYDYDYWGQGTQVTVSP	low polyreactivity
QVQLVESGGGVVQAGGSLRLSCAASGRIFRGYVMGWYRQAPRKERELVAAITWSGANTYYADSVKGRFTISRDNAMNTVYLQMNSLKPEDSAVYYCAATVSYWSTKEDDYWGLGTQVTVSS	low polyreactivity
QVQLVESGGGVVQAGGSLRLSCAASGRIFVSNPMGWYRQAPGKERELVAAITSGGRTNYADSVKGRFTISRDNAKNTVYLQMNSLKPEDTAVYYCNARGYSSRGFRRYSTKYDYWGQGTQVTVSS	high polyreactivity
QVQLVESGGGVVQAGGSLRLSCAASGRTFSYYAMGWYRQSPGKERELVATISYSTGNTNYADSVKGRFTISRDNAKNTVYLQMNSLKPEDTAVYYCAADFSPFVGETYWKYDYWGQGTQVTVSS	low polyreactivity
QVQLVESGGGVVQAGGSLRLSCAASGRTFWRYAMGWYRQAPGKERELVAAITSGGGSTYYADSVKGRFTISRDNAKNTVYLQMNSLKPEDTAVYYCNRAGRGSSFKGDYWGQGTQVTVSS	high polyreactivity
QVQLVESGGGVVQAGGSLRLSCAASGRTIDPKAMGWYRQAPGKERELVAAITRTGVRTYYADSVKGRFTISRDNAKNTVYLQLNILKPEYTAVYYCNRYGARSNDYWGQGTQVSVSS	low polyreactivity

Sequence	polyreactivity (PSR sort gate)
QVQLVESGGGVVQAGGSLRLSCAASGRTIWSNAMGWYRQAPGKERELVAAISRTGGRTYYADSVKGRFTISRDNAKNTVYLQMNSLKREDTAVYYCATGSGVYDYWGQGTQLTVSS	high polyreactivity
QVQLVESGGGVVQAGGSLRLSCAASGSTAIYYTMGWYRQAPGKERELVAYADSVKGRFTISRDNAKTTVYLQMNSLKPEDTAVYSCAAPRTYYSELTSPYDYWGQGTQVTVSS	low polyreactivity
QVQLVESGGGVVQAGGSLRLSCAASGSTFYINTMGWSRPAPGKDRELVAAISWTGGRTYYAASVKGRFTISRANAKNTVYLQMNSLKPEDTAVYYCAAYYNIPDRRRVGYDYWGQGTQVTVSS	high polyreactivity
QVQLVESGGGVVQAGGSLRLSCAASGSTIYRYAMGWYRQAPGKEREFVPAITRTTARTYYADSVKGRFTFSRDNAKNTVYLQMNSLKPEDTAVYYCAADLYSWTWSGFRQYDSWGQGTQVTVSS	high polyreactivity
QVQLVESGGGVVQAGGSLRLSCAASVRTFPGYAMGWYRQAPGKERELVAAISWSGTSTYYADSVKGRFTISRDYAKNTVYLQMNSLKPEYTAVYDCNKVYTYSAPYYYWGQGTQVTVSS	high polyreactivity
QVQLVESGGGVVQAGGSLRLSCPASGSIFETYVMGWYRPAPGIERELVAAINSGGSTNYADSVKGRFTISRDNAKNTVYLQMNRLKPEDTAVYYCNADWFTPAQPWYRSFIRYDYWGQGTQVTVSS	low polyreactivity
QVQLVESGGGVVQAGGSLSLSCAASGNTFPVYAMGWYRQASAKERELVATITSGGSTNYADSVKGRFTISRDNAKNTVYLQMNSLKPEDTAVYYCARRAVYSKRRYDYWGQGTQVTVSS	low polyreactivity
QVQLVESGGGVVQARGSRRLSCAASGRSYANAMGWYRQAPGKERELVAAITKNGGGTYYADSVKGRFTISRDNAKNTVYLQMNSLKPEDTAVYYCAASYSRWYYTAKQQEFDYWGQGTQVTVSS	high polyreactivity
QVQLVESGGPLVQSGGSLRIICPASGSTFRYYSMGWYRQAPGKERELVAAISYGGGITNYADSVKGRLTISRDNAKNTVYLQMNSLKPEDTAVYYCAAYDRITRYDYWGQGTQVTVSS	high polyreactivity
QVQLVESGGRIVQAGGSLRLRCAASGRTLLRYAMGWSRQAPGKERELVAAISSSGGRTYYADSVKGRFTISRDNEKNTVYLQMNSLKPEDTAVYYCAAKSSYVGHDYWGQGTQVTVSS	high polyreactivity
QVQLVESGGRIVQAGGSLRLSCAASGRLFDRYAMGWYRQAPGQERELVAAISWSAGSTYYADSVKGRFTISRDNAKNTVYLQMNSLKPEDTAVYYCAVPARGTFLLRDGGRAEFDYWGQGTQVTVSS	low polyreactivity
QVQLVESGGRIVQAGGSLRLSCAASGRTFLYNVMGWSRQAPGKERELVAAITSGGRTYYADSVKGRFTISRDNAKNTVYLQMNSLKPEDTAVYYCNADRQLYIYRYDYWGQGTQVTVSS	low polyreactivity
QVQLVESGGRLVKAGASHRLSCAASAITCGRNTRGWYRQAPGKARELVAAIDSGVNTYADSVKGRFTISRDNAKYTVYLQMTSLKPEDTSVYYWAFVGGEFSSYGYWGLGTQVTVSS	low polyreactivity
QVQLVESGGRLVQAGASLRLSCAASASIFASNAMGWYRHEPGKERELVAAINSGDSTNYADSVKGRFTISRDNAKNTVYLQMNSLKPEDTAVYYCARGLEERYDYWGQGTQVTVSS	low polyreactivity
QVQLVESGGRLVQAGASLRLSCDASGRIFQWYAIGWYRQAPGKVRELVAAITSGSSTYYADSVKGRFTISRDNAKNSVYLQMNSLKPEDTAVYYCAAEAVYVSSWYDDYYYFRYDYWGQGTQVTVSS	high polyreactivity
QVQLVESGGRLVQAGCSLRLSCAASGSIFDVYAMGWYRPAPGKERELVAAISRGGRTYYADSVKGRFTISRDNAKNTVYLQMNSLKPEDTAVYYCAAVTRLDGNMDYWGQGTQVTVSS	high polyreactivity
QVQLVESGGRLVQAGFSLRLSCAASGSTFRWYALGWYRQAPGIESELVAAITSGGRTYYADSVKGRFTISRDNAKNPVYLQMSSLKPEATAGYYCAAQYADRGKRDYWGQGTQVTGSS	high polyreactivity
QVQLVESGGRLVQAGGILRLSCAASGFIFLSYAMGWYRQAPGKERELVAAITSNGGSTYYADSVKGRFTISRDNAKNTVYLQMNSLKPEDTSVYYCAARFSQGKVRMGYWGQGTQVTVSS	high polyreactivity
QVQLVESGGRLVQAGGILRLSCAASGRIFSANAMGWYRQAPGKERELVAAITSSGGSTYYADSVKGRFTISRDNAKNTVYLQMNSLKPEDTAVYYCAAESAAYGGGTSDAGYESDYLGQGTQVTVSS	low polyreactivity
QVQLVESGGRLVQAGGSIRLSCAASGSTLNVNAMGGYRQAPGKERELVAAITSGGSTYYADSVKGRFTISRDNAKNTVYLQMNSLKPEDTAVYYCNKRRSWRPTYPIGGSGFYYWGQGTQVTVSS	low polyreactivity
QVQLVESGGRLVQAGGSLRISSAASGFIFYKYTMGWYRQAPGKERELVAAITRSGGSTYYADSVKGRCTISRDNAKNTVYLQMNSLKPEDTAVYYCAATQSFRRNYDYWGQGTQVTVSS	high polyreactivity
